Several values for one entry are separate records, joined by “and”; a condition that tells them apart may be missing. Equal values may be shown once. Read-outs that look alike come from different tables or passages of the source.
What was measured:
[1] = biological target: rabbit muscle G-actin (actin monomers; ATP-G-actin or ADP-G-actin) (rabbit) (UniProt P68135); assay: shift of the apparent critical concentration of pyrene-actin
[2] = biological target: rabbit muscle G-actin (actin monomers; ATP-G-actin or ADP-G-actin) (rabbit) (UniProt P68135); assay: as above; remark: listed apart in the source

MBP-CAS-2N (N-terminal half of CAS-2, residues 1-207, fused to maltose-binding protein) (domain or fragment)
Kd [1]: 2.9 µM and 0.83 µM

MBP-CAS-2CΔWH2 (C-terminal half of CAS-2 lacking WH2, residues 275-457, fused to maltose-binding protein) (domain or fragment)
Kd [1]: 1.7 µM and 1.2 µM
Kd [2]: 3.6 µM and 2.9 µM

MBP-CAS-2C (C-terminal half of CAS-2, residues 208-457, fused to maltose-binding protein) (domain or fragment)
Kd [1]: 1.7 µM and 2.9 µM
Kd [2]: 1 µM and 0.95 µM

MBP-CAS-2 (full-length CAS-2, cyclase-associated protein-2, fused to maltose-binding protein) (natural protein)
Kd [1]: 0.83 µM

Reference: article PMC4086254
